experiment: soluble on expression in E. coli; label from the status in PepcDB or PDB records

Sequence	soluble on expression in E. coli
RLSTWARKQTAMSQTQDYECRSHNVDLPESRIPGSNTRLEWVEIIEPRTRERMYANLVTGECVWDPPAGVRIKRTSENQWWELFDPNTSRFYYYNASTQRTVWHRPQGCDIIPLAKLQTLKQNTESPRASAESSPGRGSSVSREGSTSSSLEPEPDTEKAQELPARAGRPAAFGTVKEDSGSSSPPGVFLEKDYEIYRDYSADGQLLHYRTSSLRWNSGAKERMLIKVADREPSFLAAQGNGYAPDGPPGVRSRRPSGSQHSPSLQTFAPEADGTIFFPERRPSPFLKRAELPGSSSPLLAQPRKPSGDSQPSSPRYGYEPPLYEEPPVEYQAPIYDEPPMDVQFEAGGGYQAGSPQRSPGRKPRPFLQPNKQGPPSPCQQLVLTKQKCPERFLSLEYSPAGKEYVRQLVYVEQAGSSPKLRAGPRHKYAPNPGGGSYSLQPSPCLLRDQRLGVKSGDYSTMEGPELRHSQPPTPLPQAQEDAMSWSSQQDTLSSTGYSPGTRKRKSRKPSLCQATSATPTEGPGDLLVEQPLAEEQPPCGTSLAPVKRAEGEAEGARGAAEPFLAQARLAWEAQQAHFHMKQRSSWDSQQDGSGYESDGALPLPMPGPVVRAFSEDEALAQQENRHWRRGTFEKLGFPQILLEKSVSVQTNLASPEPYLHPSQSEDLAACAQFESSRQSRSGVPSSSCVFPTFTLRKPSSETDIENWASKHFNKHTQGLFRRKVSIANMLAWSSESIKKPMIVTSDRHVKKEACELFKLIQMYMGDRRAKADPLHVALEVATKGWSVQGLRDELYIQLCRQTTENFRLESLARGWELMAICLAFFPPTPKFHSYLEGYIYRHMDPVNDTKGVAISTYAKYCYHKLQKAALTGAKKGLKKPNVEEIRHAKNAVFSPSMFGSALQEVMGMQRERYPERQLPWVQTRLSEEVLALNGDQTEGIFRVPGDIDEVNALKLQVDQWKVPTGLEDPHVPASLLKLWYRELEEPLIPHEFYEQCIAHYDSPEAAVAVVHALPRINRMVLCYLIRFLQVFVQPANVAVTKMDVSNLAMVMAPNCLRCQSDDPRVIFENTRKEMSFLRVLIQHLDTSFMEGVL	soluble
RMEMVEIGGIQQALYIRGQNADNPIILWVHGGPGNSMMPFLHLYQYEWENDFTVVNWDQRNVGKTYFANDPAAVLQTMSAERVLQDVHEVTAYLKQEFNKEKIILIGHSWGTVLGTMAVQTYPEDYSAYIGIAQTVNMVDNERVGYEKTLEMVKAAGKQKDIKALEAIAPYPPAKYGPSYLAALMTVRTYQSKYGLSINMDLGNIISILATPYYSLRELKNTAIFNPNAIDNQGDVLRFLVEEADIRNYGVDYQVPVYYIMGENDYNSPYLPAKKFFDEIVAPDKQIFFIPDADHLPFLSKKAEFDCVLLE	not soluble
RMNLKEAAKKAENKSDFVNHVLPHYCNIMFGLIETRSAFLHEKSNFFEGFLTKEGLINEDRFAPMFGIYGMAEAVDILMEKEGIEAKYGHDEIANQLGHAISKQLSEIVDATDVKYGYHGKALLHAQGGISLDIDVTPGVRIPYGTEPDPVSYVQATVGHHQYYTSGISDILTIDETVKSNPEAMFNLAKGALQLGYREFTANVASNDLVRITGYMVKLSDIAKYDAEGSRTNTTFL	not soluble
RPARQVRRLEFNQAMDDFKTMFPNMDYDIIECVLRANSGAVDATIDQLLQMNLE	soluble
RPLKRDKPAARTLKDNWLRTEREERLWQALRVWRMKQAEAEGIPAYMIFGDKTLRDLVEKMPQDLNGLHDIYGLGEAKIDRFGHGILEVCRNAAGFSRDAVIRPQTEREQQLRQKLEAWRYEQARAENCALHAVLSDESLADMLADTPETETDLEGVYGLGSVRAAKYGRDILAVCRPFSDGIDETAKRKRRLMRALIQWCGETAKHEQSEPYRILSKAALRAIAAKQPEGLAELAAVYGVGEEKAARYGAAVLAVLERNAV	not soluble
RPPLQEYVRKLLYKDLSKVTTEKVLRQMRKLPWQDQEVKDYVICCMINIWNVKYNSIHCVANLLAGLVLYQEDVGIHVVDGVLEDIRLGMEVNQPKFNQRRISSAKFLGELYNYRMVESAVIFRTLYSFTSFGVNPDGSPSSLDPPEHLFRIRLVCTILDTCGQYFDRGSSKRKLDCFLVYFQRYVWWKKSLEVWTKDHPFPIDIDYMISDTLELLRPKIKLCNSLEESIRQVQDLEREFLIKLGLVN	soluble
RPQTTNSWQNSEIEGIDIMLAIDVSTSMLAEDLKPNRLEAAKDVAAEFINGRPNDNIGITLFAGESFTQCPLTVDHAVLLNLFQGIQCDIIEDGTAVGMGIANAVTRLKDSKAKSKVIILLTDGTNNKGDISPLTAAEIAKSFGIRVYTIGVGTNGMAPYPVRVGGTTQYINTPVEIDEKTLTQIAGTTDGNYFRATSNSKLKEVYEEI	not soluble
RRNINVVLHEDSKALDEVVIVGYGKQKKESVVVSMSSIKPKDIVVPSRSLNNSLAGQVAGLIAVQRSGEPGYDNAEFWIRGVSTFAGGTSPLVLVDGVPRNMSDIEPDEIETFSVLKDAAATAIYGAEGANGVVLVTTKRGRVEK	not soluble
RSDTTIVATVNPRDKQTTLVSLARDTYVDIPGQGKQDKLNHAYAFGGASLAMDTVENYLNIPINHYVSINMAGLKELVNAVGGIEVNNNLTFSQDGYDFTIGKISLDGEQALSYSRMRYEDPNGDYGRQERQRKVIEGIVQKVLS	not soluble
RTLELAFSSEAAEVQTRSGVEILGHRINEVRMHRLDNGAALLLDHNPREHIGVVESASIDSDHRGRAIVRFGRSPRAEEILRDVLDGIRKHVSVGYLVHQVEVIGQRDAGPLYRATDWEPIEISIVSIPADPSVGIGRALENLPQD	not soluble
RVASNLDNKARVTELFNSAYSILTEVEKLAQEGKMSEPEAKALATRLMRNNLYKDNEYVYVADENMTFVATPLDPQLHDTSFHDFKDGKGNSVGR	not soluble
RVCPRILLECKKDSDCLAECVCLEHGYCG	soluble
RVKGTFNKYSQLRSMSGMNGAQVAQRVLQAAGIYDVQVRHVSGSLTDHYDPRTKTVNLSDPVYNATSVAALGVAAHECGHAIQHAKSYAPLSIRS	not soluble
RWQEGNRITLLENGDQYYPALFAAIGRASRRVILESFIWFEDEVGRRLHAVLLEAARRGIQVEVLLDGYGSPDLSDEFVGELTAAGVIFRYYDPRPKLMGMRTNLFRRMHRKIVVIDDTTAFVGGINYSAEHMSDYGPEAKQDYAVQVEGPVVLDILQFELENLPNSETARRWWRRRRH	not soluble
RYWKPEFHPDNSKSIEEWTDEIHTTLQKIMPEVKSENETAELFLSGGVDSSYILAMSDIEKTGSCGYEEERFDESKLAQQTANILGCKNSRYIITPEEYFASVPYVMYHMEQPTGDASAIVFAIGCKAAAENTNICYSGEGADEFFGGYNIYHKAECYGENLKTFYIGNTNIMNEGEKRKILKKYNPDVLPIEVVKGIYEETEELDTLTNMSNVDIQIWLEGDIYFNIDKMSTAVGLEVRMPLTDTRIFDIASRIPSEYKVKGKENKIAFRTAASKTLPEEIAFRNKLGFIVPIRIWMADDQYNKDIRDKFNSEIADKFFNIDEINEIFNDYISGNSDNWRKIWMIYTFLVWYEIYFVKC	not soluble
SAEGDAGSDQRQNEEIEAMAAIYGEEWCVIDDCAKIFCIRISDDIDDPKWTLCLQVMLPNEYPGTAPPIYQLNAPWLKGQERADLSNSLEEIYIQNIGESILYLWVEKIRDVLIQKSQMTEPGPDVKKKTEEEDVECEDDLILACQPESSVKALDFDISETRTEVEVEELPPIDHGIPITDRRSTFQAHLAPVVCPKQVKMVLSKLYENKKIASATHNIYAYRIYCEDKQTFLQDCEDDGETAAGGRLLHLMEILNVKNVMVVVSRWYGGILLGPDRFKHINNCARNILVEKNYTNSPEESSKALGKNKKVRKDKKRNEH	soluble
SAKNAYTKLGTDDNAQLLDIRATADFRQVGSPNIKGLGKKAVSTVYNGEDKPGFLKKLSLKFKDPENTTLYILDKFDGNSELVAELVALNGFKSAYAIKDGAEGPRGWLNSSLPWIEPKKT	soluble
SALDTNYCFRNLEENCCVRPLYIDFRQDLGWKWVHEPKGYYANFCSGPCPYLRSADTTHSTVLGLYNTLNPEASASPCCVPQDLEPLTILYYVGRTPKVEQLSNMVVKSCKCS	soluble
